T1: human CD25-extracellular domain (CD25-ECD) (UniProt P01589 22-240)
T1 chain: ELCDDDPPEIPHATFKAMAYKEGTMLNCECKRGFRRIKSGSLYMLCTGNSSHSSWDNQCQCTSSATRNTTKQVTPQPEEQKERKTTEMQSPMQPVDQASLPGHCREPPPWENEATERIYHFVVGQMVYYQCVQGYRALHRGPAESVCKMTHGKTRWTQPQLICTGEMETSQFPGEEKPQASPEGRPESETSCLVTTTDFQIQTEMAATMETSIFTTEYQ


Molecular target: T1, human CD25-extracellular domain …
Assay: SPR

Kd [nM]	Binder
107	ODY-N1783Hu1 (antibody, V domains shown) VH: EVQLLESGGGLAQPGGSLRLSCAASGFTFSNYAMSWARQAPGKGLEWVSGIYSDGSGTYYADSVKGRFTISRDNAKNTVYLQMNSLRPEDTAVYYCSKGARSGSYYPWDDVWGQGTQVTVSS
102	ODY-48D11Hu1 (antibody, V domains shown) VH: EVQLLESGGGLVQPGGSLRLSCAASGFTFSNYAMSWARQAPGKGLEWVSGIYSDGSGTYYADSVKGRFTISRDNAKNTVYLQMNSLRPEDTAVYYCAKGRNSGSYYPFDDYWGQGTQVTVSS
66	ODY-48C10Hu1 (antibody, V domains shown) VH: EVQLLESGGGLAQPGGSLRLSCAASGFTFSNYAMSWTRQAPGKGLEWVSGIYSDGSGTYYADSVKGRFTISRDNAKNTVYLQMNSLRPEDTAVYYCAKGRNSGSYYPFDDYWGQGTQVTVSS
49	ODY-N1769Hu1 (antibody, V domains shown) VH: EVQLLESGGGLAQPGGSLRLSCAASGFTFSNYAMSWVRQAPGKGLEWVSGIYSDGSGTYYADSVKGRFTISRDNAKNTVYLQMNSLRPEDTAVYYCSKGRHSGSYYPWDEYWGQGTQVTVSS

Molecular target: T1, human CD25-extracellular domain …
Assay: SPR
Remark: another data set of the same source

Kd [nM]	Binder
149	ODY-N1812Hu1 (antibody, V domains shown) VH: EVQLLESGGGLAQPGGSLRLSCAASGFTFSNYAMSWARQAPGKGLEWVSGIYSDSSGTYYADSVKGRFTISRDNAKNTVYLQMNSLRPEDTAVYYCAKGRGSGGYYPFDDYWGQGTQVTVSS
62	ODY-N1810Hu1 (antibody, V domains shown) VH: EVQLLESGGGLAQPGGSLRLSCAASGFTFSNYAMSWARQAPGKGLEWVSGIYSDSSGTYYADSVKGRFTISRDNAKNTVYLQMNSLRPEDTAVYYCVKGRGSGSYYPFDDYWGQGTQVTVSS
241	ODY-N1808Hu1 (antibody, V domains shown) VH: EVQLLESGGGLAQPGGSLRLSCAASGFTFSNYAMSWVRQAPGKGLEWVSGIYSDGSGTYYADSVKGRFTISRDNAKNTVYLQMNSLRPEDTAVYYCATGKHSGSYYPWDDYWGQGTQVTVSS
348	ODY-N1811Hu1 (antibody, V domains shown) VH: EVQLLESGGGLAQPGGSLRLSCAASGFTFSNYAMSWARQAPGKGLEWVSGIYSDSSGTYYADSVKGRFTISRDNAKNTVYLQMNSLRPEDTAVYYCAKGRGSGSYYPLDDYWGQGTQVTVSS

Molecular target: T1, human CD25-extracellular domain …
Assay: SPR
Remark: another data set of the same source

Kd [nM]	Binder
12	ODY-N2016Hu1 (antibody, V domains shown) VH: EVQLLESGGGLVQPGGSLRLSCAASGRTFADFGMGWFRQAPGKEREFVAAISRSGGRTRYADSVKGRFTISRDDAKNTVYLQMNSLRPEDTAVYYCAASYFLLAITISGYDYWGQGTQVTVSS
19	ODY-N2024Hu1 (antibody, V domains shown) VH: EVQLLESGGGLVQPGGSLRLSCAASGRTFSSYGMGWFRQAPGKEREFVAAISQSGGRTRYADSVKGRFTISRDNVKNTVYLQMNSLRPEDTAVYYCAATNFLIATTISAHDYWGQGTQVTVSS
17	ODY-N2022Hu1 (antibody, V domains shown) VH: EVQLLESGGGLVQPGGSLRLSCAASGRTFSSYGMGWFRQAPGKEREFVAAISQSGGRTRYADSVKGRFTISRDNAKNTVYLQMNSLRPEDTAVYYCAATKFLIATTISAYDYWGQGTQVTVSS
13	ODY-N2017Hu1 (antibody, V domains shown) VH: EVQLLESGGGLVQPGGSLRLSCAASGRTFSSYGMGWFRQAPGKEREFVAAISQSGGRTRYADSVKGRFTISRDNAKNTVYLQMNSLRPEDTAVYYCAATNFLIAATISAYDYWGQGTQVTVSS

Molecular target: T1, human CD25-extracellular domain …
Assay: SPR
Remark: another data set of the same source

Kd [nM]	Binder
11	ODY-N1961Hu1 (antibody, V domains shown) VH: EVQLVESGGGLVQPGGSLRLSCAASGRSFSTLIMAWYRQAPGKQRELVATIERGGTTTYADSVKGRFTASRDNAKNTVYLQMNSLRPEDTAVYYCNALGYWGQGTQVTVSS
12	ODY-N1970Hu1 (antibody, V domains shown) VH: EVQLVESGGGLVQPGGSLRLSCAASGRSFSTLIMGWYRQAPGKQRELVATIERGGTTTYADSVKGRFTISRDNAKNTVYLQMNSLRPEDTAVYYCNALLYWGQGTQVTVSS
13	ODY-N1955Hu1 (antibody, V domains shown) VH: EVQLVESGGGLVQPGGSLRLSCAASGRSFSTLIMAWYRQAPGKQRELVATIERGGTPTYADSVKGRFTISRDNAKNTVYLQMNSLRPEDTAVYYCNALGYWGQGTQVTVSS

Molecular target: cCD25
Assay: SPR

Kd [nM]	Binder
34	46A3 (VHH) VHH: EVQLLESGGGLAQPGGSLRLSCAASGFTFSNYAMSWARQAPGKGLEWVSGIYSDGSGTYYADSVKGRFTISRDNAKNTVYLQMNSLRPEDTAVYYCAKGRNSGSYYPWDDYWGQGTQVTVSS

Molecular target: T1, human CD25-extracellular domain …
Assay: SPR
Remark: another data set of the same source

Kd [nM]	Binder
26	ODY-N1978Hu1 (antibody, V domains shown) VH: EVQLVESGGGLVQPGGSLRLSCAASGRSFSTLIMGWYRQAPGKQRELVATIERGGTTTYADSVKGRFTISRDNAKNTVYLQMNSLRPEDTAVYYCNALRDWGQGTQVTVSS
20	ODY-N1974Hu1 (antibody, V domains shown) VH: EVQLVESGGGLVQPGGSLRLSCAASGRKFSTLIMAWYRQAPGKQRELVATVDRGGTTTYADSVKGRFTISRDNAKNTTYLQMNSLRPEDTAVYYCNALRNWGQGTQVTVSS

Molecular target: T1, human CD25-extracellular domain …
Assay: SPR
Remark: another data set of the same source

Kd [nM]	Binder
9.4	ODY-N2010Hu1 (antibody, V domains shown) VH: EVQLLESGGGLVQPGGSLRLSCAASGRTFSSYGMGWFRQAPGKEREFVVAISGSGGRTRYADSVKGRFTISRDNAKNTVYLQMNSLRPEDTAVYYCAASDFLIATSISAYDYWGQGTQVTVSS
22	ODY-N2008Hu1 (antibody, V domains shown) VH: EVQLLESGGGLVQPGGSLRLSCAASGRTFASFGMGWFRQAPGKEREFVAAISRGGGRTRYADSVKGRFTISRDDAKNTVYLQMNSLRPEDTAVYYCAASYFLLATTISGYDYWGQGTQVTVSS
9.4	ODY-N2011Hu1 (antibody, V domains shown) VH: EVQLLESGGGLVQPGGSLRLSCAASGRTFASFGMGWFRQAPGKEREFVAAISQGGGRTRYADSVKGRFTISRDDAKNTVYLQMNSLRPEDTAVYYCAASYFLLATTISGYDYWGQGTQVTVSS
13	ODY-N2005Hu1 (antibody, V domains shown) VH: EVQLLESGGGLVQPGGSLRLSCAASGRTFSSYGMGWFRQAPGKEREFVAAISQSGGRTRYADSVKGRFTISRDNAKNTVYLQMNSLRPEDTAVYYCAATNFLIATTISAYDYWGQGTQVTVSS

Molecular target: T1, human CD25-extracellular domain …
Assay: SPR
Remark: another data set of the same source

Kd [nM]	Binder
7.6	ODY-N2003Hu1 (antibody, V domains shown) VH: EVQLVESGGGLVQPGGSLRLSCAASGRKFSTLIMAWYRQAPGKQRELVATIDRDGTTTYADSVKGRFTISRDNAKNTVYLQMNSLRPEDTAVYYCSTLRYWGQGTQVTVSS

Molecular target: T1, human CD25-extracellular domain …
Assay: SPR
Remark: another data set of the same source

Kd [nM]	Binder
31	ODY-N1998Hu1 (antibody, V domains shown) VH: EVQLVESGGGLVQPGGSLRLSCAASGRRFSTLIMGWYRQAPGKQRELVATIERGGTPTYADSVKGRFTISRDNAKNTVYLQMNSLRPEDTAVYYCKTLRYWGQGTQVTVSS
13	ODY-N1999Hu1 (antibody, V domains shown) VH: EVQLVESGGGLVQPGGSLRLSCAASGRKFSTLIMGWYRQAPGKQRELVATIERDDTTTYADSVKGRFTISRDNAKNTVYLQMNSLRPEDTAVYYCKTLRYWGQGTQVTVSS
18	ODY-N2001Hu1 (antibody, V domains shown) VH: EVQLVESGGGLVQPGGSLRLSCAASGRKFSTLIMAWYRQAPGKQRELVATIDRDGTTTYADSVKGRFTISRDNAKNTVYLQMNSLRPEDTAVYYCKTLRYWGQGTQVTVSS
14	ODY-N2000Hu1 (antibody, V domains shown) VH: EVQLVESGGGLVQPGGSLRLSCAASGRKFSTLIMGWYRQAPGKQRELVATIERDDTTTYADSVKGRFTISRDNAKNTVYLQMNSLRPEDTAVYYCTTLRYWGQGTQVTVSS

Molecular target: T1, human CD25-extracellular domain …
Assay: SPR
Remark: another data set of the same source

Kd [nM]	Binder
10	ODY-N2027Hu1 (antibody, V domains shown) VH: EVQLLESGGGLVQPGGSLRLSCAASGRTFSSYGMGWFRQAPGKEREFVAAISQSGGRTRYADSVKGRFTISRDNAKNTVYLQMNSLRPEDTAVYYCAATNFLIATAISAYDYWGQGTQVTVSS
14	ODY-N2025Hu1 (antibody, V domains shown) VH: EVQLLESGGGLVQPGGSLRLSCAASGRTFSSYGMGWFRQAPGKEREFVAAISQSGGRTRYADSVKGRFTISRDNAKNTVYLQMNSLRPEDTAVYYCAATNVLIATTISAYDYWGQGTQVTVSS
11	ODY-N2026Hu1 (antibody, V domains shown) VH: EVQLLESGGGLVQPGGSLRLSCAASGRTFSSYGMGWFRQAPGKEREFVAAISQSGGRTRYADSVKGRFTISRDNAKNTVYLQMNSLRPEDTAVYYCAATNFPIATTISAYDYWGQGTQVTVSS

Reference: patent publication US20260258143A1 (published 2026)
